{
  "source": "paper PMC5389741",
  "molecular_target": "PGK1 (UniProt P00558)",
  "assay": "GST pull-down with purified proteins",
  "settings": "reference: WT GST-ARD1 with mTOR; sites S228",
  "data": [
    {"substance": "ARD1 (from UniProt P41227) GST-ARD1 S228A with mTOR", "values": [
      {"measurement": "binding against the reference", "result": "stronger"}
    ]}
  ]
}
